One experiment addresses monoubiquitin (UniProt P0CG48 1-76). Put plainly: NMR 13C-half-filtered NOESY.
For another experiment, the target named is hRpn13 Pru (1–150) (human, UniProt Q16186 1-150, 13C-labelled). Put plainly: NMR structure.

B1: hRpn2-bound hRpn13 (hRpn13 Pru:hRpn2 (940–953) complex) (complex, human)
chain 1: MTTSGALFPSLVPGSRGASNKYLVEFRAGKMSLKGTTVTPDKRKGLVYIQQTDDSLIHFCWKDRTSGNVEDDLIIFPDDCEFKRVPQCPSGRVYVLKFKAGSKRLFFWMQEPKTDQDEEHCRKVNEYLNNPPMPGALGASGSSGHELSAL
chain 2: QEPEPPEPFEYIDD
modifications: 13C-labelled
On to B1, for which the binding result in the experiment with monoubiquitin is “binds”.

With QEPEPPEPFEYIDD (peptide, UniProt Q99460 940-953, looked up) [hRpn2 (940–953)], the binding result in the experiment with hRpn13 Pru (1–150) is “binds”.
